T1: CLUST.143952 3300028591 effector (Ga0247611_10000032_233) (uncultured metagenome (sheep rumen))
T1 chain: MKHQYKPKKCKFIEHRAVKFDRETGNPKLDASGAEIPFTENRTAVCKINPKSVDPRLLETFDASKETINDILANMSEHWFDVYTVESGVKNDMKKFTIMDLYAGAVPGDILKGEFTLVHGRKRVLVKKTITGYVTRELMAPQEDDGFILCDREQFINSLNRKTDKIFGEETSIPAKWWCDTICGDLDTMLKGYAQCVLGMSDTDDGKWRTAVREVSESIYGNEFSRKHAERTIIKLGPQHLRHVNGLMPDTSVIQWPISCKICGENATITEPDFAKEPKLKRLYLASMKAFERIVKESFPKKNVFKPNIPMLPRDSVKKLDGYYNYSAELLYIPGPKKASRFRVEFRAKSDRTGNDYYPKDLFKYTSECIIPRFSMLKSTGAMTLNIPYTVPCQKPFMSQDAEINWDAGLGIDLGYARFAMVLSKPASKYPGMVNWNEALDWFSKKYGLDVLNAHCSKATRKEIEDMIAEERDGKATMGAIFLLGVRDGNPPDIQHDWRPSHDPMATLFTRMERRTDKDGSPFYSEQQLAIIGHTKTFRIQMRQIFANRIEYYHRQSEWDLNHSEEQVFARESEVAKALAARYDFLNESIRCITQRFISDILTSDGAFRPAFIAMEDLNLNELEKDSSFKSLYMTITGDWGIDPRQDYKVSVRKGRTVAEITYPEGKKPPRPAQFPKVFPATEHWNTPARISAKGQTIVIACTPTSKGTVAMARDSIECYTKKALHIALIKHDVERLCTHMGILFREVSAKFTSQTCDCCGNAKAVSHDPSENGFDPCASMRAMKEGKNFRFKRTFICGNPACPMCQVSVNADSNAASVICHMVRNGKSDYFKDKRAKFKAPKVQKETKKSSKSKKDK

B1: pre-crRNA Target 1 (DR-spacer-DR) ; GFP Target 1 (ssRNA ; dsDNA)
RNA: UAUGGUAGAGGUGCCACCGGUUUACAUGGCGCCGAUACCAAGGUAUGAAAUUUAUCAUUAAAGGCGUAUGGUAGAGGUGCCACCGGUUUACAUGGCGCCGAUACCUAACCCCUCUCUAAACGGAGGGGUUU
DNA 1: AAGGTATGAAATTTATCATTAAAGGCG
DNA 2: CGCCTTTAATGATAAATTTCATACCTT
B2: mature crRNA Target 3 ; GFP Target 3 (ssRNA ; dsDNA)
RNA: UAUGGUAGAGGUGCCACCGGUUUACAUGGCGCCGAUACCAAGGUAUGAAAUUUAUCAUUAAAG
DNA 1: AAGGTATGAAATTTATCATTAAAG
DNA 2: CTTTAATGATAAATTTCATACCTT

Columns and labels:
[1] = biological target: T1, CLUST.143952 3300028591 effector …; test: PAM 5'-G-3'; 37 C, in vitro transcription/translation; ratio normalised to non-target guide (SEQ 90); conditions: tags: FDA assay, one-pot in vitro transcription/translation
Source text: (§1) In this assay, an active CRISPR system designed to target GFP binds and cleaves the double-stranded DNA region encoding GFP, resulting in depletion of GFP fluorescence. The FDA assay involves in vitro transcription and translation, allowing production of an RNP from a DNA template encoding a CLUST.143952 effector and a DNA template containing a pre-crRNA sequence under a T7 promoter with direct repeat (DR)-spacer-direct repeat (DR); the spacer targeted GFP. In the same one-pot reaction, GFP and RFP were also produced as both the target and the fluorescence reporter (FIG. 8A). The target GFP plasmid sequence is set forth in SEQ ID NO: 86, and the RFP plasmid sequence is set forth in SEQ ID NO: 87. GFP and RFP fluorescence values were measured every 20 min at 37° C. for 12 hr, using a TECAN Infinite F Plex plate reader. Since RFP was not targeted, its fluorescence was not affected and was therefore used as an internal signal control.
(§2) 2 GFP targets (plus 2 non-targets) were designed for the effector of SEQ ID NO: 1. RNA guide sequences (pre-crRNAs for Target 1 and Non-Target 2 and mature crRNAs for Target 3 and Non-Target 4), target sequences, and the non-target control sequences used for the FDA assay are listed in TABLE 9. […]
(§3) GFP signal was normalized to RFP signal, then the average fluorescence of three technical replicates was taken at each time point. […]

[2] = biological target: T1, CLUST.143952 3300028591 effector …; test: PAM 5'-G-3'; 37 C, in vitro transcription/translation; ratio normalised to non-target guide (SEQ 93); conditions: tags: FDA assay, one-pot in vitro transcription/translation
Source text: as §1, §2, §3

Binder | activity [1] [GFP depletion ratio] | activity [2] [GFP depletion ratio]
B1 | > 1 | 
B2 |  | > 1

From patent US20220282283, “NOVEL CRISPR DNA TARGETING ENZYMES AND SYSTEMS” (ARBOR BIOTECHNOLOGIES, INC., published 2022)
